B1: CT140 (humanized 33B8 anti-PAI-1 antibody, IgG4 with IgG1 hinge) (antibody, V domains shown)
VH: QVQLVQSGAEVKKPGASVKVSCKASGYTFTNYGMNWVRQAPGQGLEWMGWINTYTGEPTYTDDFKGRFTMTLDTSISTAYMELSRLRSDDTAVYYCAKDVSGFVFDYWGQGTLVTVSS
VL: DIVMTQSPDSLAVSLGERATINCKSSQSLLNIIKQKNCLAWYQQKPGQPPKLLIYWASTRESGVPDRFSGSGSGTDFTLTISSLQAEDVAVYYCQQYYSYPYTFGQGTKLEIKR
notes: The IgG4 hinge was replaced by that of IgG1; also called hP-1; humanized mAb CT140
B2: murine monoclonal antibody 33B8 (MA-33B8) (antibody, V domains shown)
VH: QIQLVQSGPELKKPGKTVTISCKASGYTFTNYGMNWVKQAPGKGLKWMGWINTYTGEPTYTDDFKGRFAFSLDTSASTAYLQISNLKNEDTATYFCAKDVSGFVFDYWGQGTTVTVSS
VL: DIVMTQSPSSLAVSVGEKVTMSCKSSQSLLNIIKQKNCLAWYQQKPGQSPKLLIYWASTRESGVPDRFTGSGSGTDFTLTISSVKAEDLAVYYCQQYYSYPYTFGGGTKLEIK

Tests used:
[1] = biological target: T1, mouse PAI-1 (mouse, UniProt P22777 23-402, limits assumed, n-terminal biotin label in the P-ELISA); experiment: P-ELISA
T1 construct: also called murine PAI-1
T1 sequence (looked up): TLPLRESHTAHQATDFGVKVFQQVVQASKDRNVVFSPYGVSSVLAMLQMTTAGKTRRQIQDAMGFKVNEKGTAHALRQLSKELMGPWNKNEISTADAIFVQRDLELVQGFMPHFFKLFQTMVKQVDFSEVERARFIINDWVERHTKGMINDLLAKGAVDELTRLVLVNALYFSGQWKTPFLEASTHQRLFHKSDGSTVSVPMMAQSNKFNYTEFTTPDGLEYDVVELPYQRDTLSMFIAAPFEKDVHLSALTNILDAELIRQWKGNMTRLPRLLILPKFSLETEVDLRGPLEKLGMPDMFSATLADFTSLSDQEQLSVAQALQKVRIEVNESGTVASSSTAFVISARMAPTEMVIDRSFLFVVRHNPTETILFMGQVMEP

[2] = biological target: human PAI-1 (plasminogen activator inhibitor-1) (human, UniProt P05121 24-402, n-terminal biotin label in the P-ELISA); experiment: cell-based or functional assay
Sequence of human PAI-1 (plasminogen activator inhibitor-1) (P05121 24-402 limits assumed): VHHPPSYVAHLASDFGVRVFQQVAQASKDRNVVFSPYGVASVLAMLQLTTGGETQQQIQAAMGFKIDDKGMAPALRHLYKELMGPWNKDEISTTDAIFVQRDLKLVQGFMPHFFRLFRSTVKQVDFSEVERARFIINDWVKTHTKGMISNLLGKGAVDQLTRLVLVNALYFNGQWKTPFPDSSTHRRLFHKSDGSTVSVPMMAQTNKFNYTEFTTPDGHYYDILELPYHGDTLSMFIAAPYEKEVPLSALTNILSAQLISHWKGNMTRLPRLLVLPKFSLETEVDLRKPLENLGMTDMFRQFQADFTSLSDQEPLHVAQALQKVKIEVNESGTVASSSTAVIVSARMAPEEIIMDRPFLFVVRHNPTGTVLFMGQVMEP

[3] = biological target: PAI-1 (antigen of Example 11, species not stated) (Homo sapiens (Human)) (UniProt P05121); experiment: biosensor kinetics, mAb captured on anti-human IgG surface at 5 densities, 25 C, global 1:1 fit
[4] = biological target: T2, rat PAI-1 (rat, UniProt P20961 24-402, n-terminal biotin label in the P-ELISA); experiment: P-ELISA: biotinylated PAI-1 (panel title: Rat PAI-1) on Neutravidin-coated plate, HRP-conjugated secondary antibody, O.D. 450
T2 sequence (looked up): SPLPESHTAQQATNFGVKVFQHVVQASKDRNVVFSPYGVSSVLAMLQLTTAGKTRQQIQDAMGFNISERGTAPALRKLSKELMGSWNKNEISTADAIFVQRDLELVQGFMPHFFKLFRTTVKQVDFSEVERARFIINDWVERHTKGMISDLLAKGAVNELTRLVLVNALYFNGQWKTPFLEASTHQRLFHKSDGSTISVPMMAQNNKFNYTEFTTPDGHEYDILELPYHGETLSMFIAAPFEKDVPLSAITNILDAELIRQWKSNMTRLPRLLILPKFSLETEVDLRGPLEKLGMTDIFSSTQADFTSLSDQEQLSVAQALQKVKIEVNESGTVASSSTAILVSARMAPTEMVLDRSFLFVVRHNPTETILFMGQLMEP
Method: All reagents are brought to room temperature (18-23° C.) and dilutions are made in Wash Buffer (1× TBS, 0.1% BSA, 0.05% Tween). Briefly, protocol steps are as follows: [0952] Add 100 μL of Neutravidin™ Pierce #31000 (0.5 μg/ml in TBS) to 96-well Immulon-4 plates. [0953] Incubate 1 hour at room temperature (RT). [0954] Wash wells 3 times with 200 μl Wash Buffer. [0955] Add 50 μL of biotinylated biomolecule (0.06 nM) Incubate 1 hour at RT. [0956] Wash plate 3 times in Wash Buffer. [0957] Add 100 μL of 1° Ab Incubate 30 min RT [0958] Wash plate 3 times in Wash Buffer. [0959] Add 50 μL of 2° Ab-HRP (1:10,000) Incubate 30 min RT [0960] Wash plate 4 times in Wash Buffer. [0961] Add 100 μl TMB Reagent (substrate). Incubate at room temperature. [0962] Add 100 μL of 2 M Sulfuric Acid to stop development of the substrate. [0963] Plates were read using a 450 nm filter with a 615-620 nm filter as the reference.
Binding of CT140 to rat, mouse, rabbit and human PAI-1 was determined by P-ELISA (see FIG. 12). The relative affinity of CT140 is human=rabbit>mouse>rat (FIG. 12A, FIG. 12B, FIG. 12C and FIG. 12D, respectively).

[5] = biological target: PAI-1 (antigen of Example 11, species not stated) (Homo sapiens (Human)) (UniProt P05121); experiment: biosensor kinetics, 25 C, global 1:1 fit
[6] = biological target: PAI-1 (immobilised antigen of the P-ELISA of FIG. 13, species not stated); experiment: P-ELISA on immobilised biotinylated PAI-1 (species not stated), A450; antibody spiked into plasma with EDTA
Sequence of PAI-1 (immobilised antigen of the P-ELISA of FIG. 13, species not stated) (P05121 24-402): as the sequence (P05121 24-402 limits assumed) above

[7] = biological target: PAI-1 (immobilised antigen of the P-ELISA of FIG. 13, species not stated); experiment: P-ELISA on immobilised biotinylated PAI-1 (species not stated), A450; antibody without plasma, with or without EDTA

fold greater affinity relative to the parent mouse anti-PAI-1 [1] | EC50 (read off the curve) [2] | Kd [3] | koff [3] | kon [3] | binding result [4] | Kd [5] | koff [5] | kon [5] | EC50 (read off the curve) [6] | EC50 (read off the curve) [7] | Binder
> 10 fold | ~10 µg/mL | 0.015 nM | 8e-06 s⁻¹ | 530000 M⁻¹ s⁻¹ | binds | – | – | – | – | – | B1
– | – | – | – | – | – | 8.01 nM | 0.00314 s⁻¹ | 393000 M⁻¹ s⁻¹ | 0.4 µg/mL | 0.1 µg/mL | B2

Reference: patent publication US20100254979A1 (CISTHERA, published 2010)
